Measurements reported in article doi:10.1101/2021.04.08.439061.
No end group written: not given here. *: point of attachment. 5FAM = O=C1OC2(c3ccc(O)cc3Oc3cc(O)ccc32)c2ccc(C(=O)*)cc21

Biological target: HLA-A*03:01 (recombinant soluble heavy chain with β2-microglobulin) (human)
Test: fluorescence polarisation

t1/2 of dissociation: 4.68 min
Binder: AHHGK(5FAM)WTTK [pWT peptide fluorescently labeled at P5 (5-carboxyfluorescein-modified lysine in place of P5 Gly)]
